# Measurements: paper PMC5627276
# How the values were obtained:
# [1] = molecular target: bRSV F 391-2 DS-Cav1 (bovine respiratory syncytial virus, strain 391-2 | bacteriophage T4); experiment: SEC; after nickel and Strep-Tactin affinity columns and cleavage of the C-terminal affinity tags; SEC in PBS
# [2] = molecular target: bRSV F 391-2 DS-Cav1 (bovine respiratory syncytial virus, strain 391-2 | bacteriophage T4); experiment: negative stain EM; about 0.01 mg/ml, 10 mM HEPES pH 7.0, 150 mM KCl, 0.75% uranyl formate; reference-free 2D class averaging
# [3] = molecular target: bRSV F ATue51908 DS-Cav1 (bovine respiratory syncytial virus, strain ATue51908 | bacteriophage T4); experiment: SEC; after nickel and Strep-Tactin affinity columns and cleavage of the C-terminal affinity tags; SEC in PBS
# [4] = molecular target: bRSV F ATue51908 DS-Cav1 (bovine respiratory syncytial virus, strain ATue51908 | bacteriophage T4); experiment: negative stain EM; about 0.01 mg/ml, 10 mM HEPES pH 7.0, 150 mM KCl, 0.75% uranyl formate; reference-free 2D class averaging
# [5] = molecular target: bRSV F DS2-v1 (391-2 sc9 DS-Cav1 Q98C Q361C) (bovine respiratory syncytial virus, strain 391-2 | bacteriophage T4); experiment: SEC; after nickel and Strep-Tactin affinity columns and cleavage of the C-terminal affinity tags; SEC in PBS
# [6] = molecular target: bRSV F DS2-v1 (391-2 sc9 DS-Cav1 Q98C Q361C) (bovine respiratory syncytial virus, strain 391-2 | bacteriophage T4); experiment: negative stain EM; about 0.01 mg/ml, 10 mM HEPES pH 7.0, 150 mM KCl, 0.75% uranyl formate; reference-free 2D class averaging
# [7] = molecular target: bRSV F DS2-v33 (391-2 sc9-10 DS-Cav1 Q98C Q361C) (bovine respiratory syncytial virus, strain 391-2 | bacteriophage T4); experiment: SEC; after nickel and Strep-Tactin affinity columns and cleavage of the C-terminal affinity tags; SEC in PBS
# [8] = molecular target: bRSV F DS2-v33 (391-2 sc9-10 DS-Cav1 Q98C Q361C) (bovine respiratory syncytial virus, strain 391-2 | bacteriophage T4); experiment: negative stain EM; about 0.01 mg/ml, 10 mM HEPES pH 7.0, 150 mM KCl, 0.75% uranyl formate; reference-free 2D class averaging
# [9] = molecular target: bRSV F DS2-v35 (ATue51908 sc9-10 DS-Cav1 A149C Y458C) (bovine respiratory syncytial virus, strain ATue51908 | bacteriophage T4); experiment: SEC; after nickel and Strep-Tactin affinity columns and cleavage of the C-terminal affinity tags; SEC in PBS
# [10] = molecular target: bRSV F DS2-v35 (ATue51908 sc9-10 DS-Cav1 A149C Y458C) (bovine respiratory syncytial virus, strain ATue51908 | bacteriophage T4); experiment: negative stain EM; about 0.01 mg/ml, 10 mM HEPES pH 7.0, 150 mM KCl, 0.75% uranyl formate; reference-free 2D class averaging
# [11] = molecular target: bRSV F RB94 DS-Cav1 (bovine respiratory syncytial virus, strain RB94 | bacteriophage T4); experiment: SEC; after nickel and Strep-Tactin affinity columns and cleavage of the C-terminal affinity tags; SEC in PBS
# [12] = molecular target: bRSV F RB94 DS-Cav1 (bovine respiratory syncytial virus, strain RB94 | bacteriophage T4); experiment: negative stain EM; about 0.01 mg/ml, 10 mM HEPES pH 7.0, 150 mM KCl, 0.75% uranyl formate; reference-free 2D class averaging
substance,measurement,setting,value
bRSV F 391-2 DS-Cav1 (domain or fragment),stoichiometry N,[1],3
same,stoichiometry N,[2],3
bRSV F ATue51908 DS-Cav1 (domain or fragment),stoichiometry N,[3],3
same,stoichiometry N,[4],3
bRSV F DS2-v1 (391-2 sc9 DS-Cav1 Q98C Q361C) (domain or fragment),stoichiometry N,[5],3
same,stoichiometry N,[6],3
bRSV F DS2-v33 (391-2 sc9-10 DS-Cav1 Q98C Q361C) (domain or fragment),stoichiometry N,[7],3
same,stoichiometry N,[8],3
bRSV F DS2-v35 (ATue51908 sc9-10 DS-Cav1 A149C Y458C) (domain or fragment),stoichiometry N,[9],3
same,stoichiometry N,[10],3
bRSV F RB94 DS-Cav1 (domain or fragment),stoichiometry N,[11],3
same,stoichiometry N,[12],3
